# Data as given in article PMC11432006, “Functional Divergence in the Affinity and Stability of Non-Canonical Cysteines and Non-Canonical Disulfide Bonds: Insights from a VHH and VNAR Study” (International Journal of Molecular Sciences, 2024).
# T1: GFP-BC2-tag (Homo sapiens (beta-catenin-derived …, UniProt P35222))
# T1 construct: also called BC2 peptide
# T1 chain: PDRKAAVSHWQQ
# Molecular target: T1, GFP-BC2-tag
# Test: SPR; Biacore 8k; antigen (lysozyme or GFP-BC2-tag) amine-coupled to a CM5 chip, single-domain antibody flowed over at 30 µL/min; running buffer 137 mM NaCl, 2.7 mM KCl, 10 mM Na2HPO4, 1.8 mM KH2PO4 pH 7.5, room temperature; 1:1 Langmuir model
# Settings: both partners purified
binder,measurement,value
"BC2-Nb_(C55A_C110S) (VHH, also called BC2-Nb mutant) VHH: QVQLVESGGGLVQPGGSLTLSCTASGFTLDHYDIGWFRQAPGKEREGVSAINNSDDDTYYADSVKGRFTIFMNNAKDTVYLQMNSLKPEDTAIYYCAEARGSKRGRYEYDFWGQGTQVTVSS",binding result,no binding (tested: 5000 nM)
